Measurements from US20150051146A1.
Read-outs that look alike come from different tables or passages of the source.

Columns and labels:
pro-HB-EGF on Vero cells [1] = assay: Schild regression from inhibition of diphtheria toxin cytotoxicity on Vero cells
pro-HB-EGF on Vero cells [2] = assay: as above; remark: listed apart in the source
pro-HB-EGF on Vero cells [3] = assay: ratio of Kd values from Schild regression (Vero cytotoxicity)

Row | Molecule | Kd (pro-HB-EGF on Vero cells [1]) | Kd (pro-HB-EGF on Vero cells [2]) | fold lower affinity for HB-EGF and pro-HB-EGF against CRM197 (pro-HB-EGF on Vero cells [3])
1 | CRM197 (natural mutant of diphtheria toxin comprising the G52E mutation) (from UniProt P00587 26-560) (ligand) | 3.1 nM | 3.1 nM | –
2 | wild-type DTR protein (DTRWT) (from UniProt P00587 405-560) (ligand) | 6.5 nM | 6.5 nM | 2 fold
3 | Clone 1D6 (DTR carrying the mutations Y380K/Q387E/L390T) (designed binder) MGKSPGHKTEPFTHDGYAVSWNTVEDSIIRTGFQGESGHDIKITAENTPLPIAGVLLPTIPGKLDVNKSKTHISVNGRKIRMRCRAIDGDVTFCRPKSPVYVGNGVHANLHVAFHRSSSEKIHSNEISSDSIGVLGYQKTVDHTKVNSKLSLFFEIKS | 0.025 nM | – | –
